Data set [1] has as its target histone acetyltransferase p300, full-length, Strep II-tagged (human, UniProt Q09472 1-2414). The experiment in a line: cross-linking.
The data set “SEC-MALS” concerns the molecule itself. The experiment in a line: SEC-MALS. A general note: Size exclusion chromatography separates by hydrodynamic size, large species first.

Sequence of histone acetyltransferase p300, full-length, Strep II-tagged (Q09472 whole entry): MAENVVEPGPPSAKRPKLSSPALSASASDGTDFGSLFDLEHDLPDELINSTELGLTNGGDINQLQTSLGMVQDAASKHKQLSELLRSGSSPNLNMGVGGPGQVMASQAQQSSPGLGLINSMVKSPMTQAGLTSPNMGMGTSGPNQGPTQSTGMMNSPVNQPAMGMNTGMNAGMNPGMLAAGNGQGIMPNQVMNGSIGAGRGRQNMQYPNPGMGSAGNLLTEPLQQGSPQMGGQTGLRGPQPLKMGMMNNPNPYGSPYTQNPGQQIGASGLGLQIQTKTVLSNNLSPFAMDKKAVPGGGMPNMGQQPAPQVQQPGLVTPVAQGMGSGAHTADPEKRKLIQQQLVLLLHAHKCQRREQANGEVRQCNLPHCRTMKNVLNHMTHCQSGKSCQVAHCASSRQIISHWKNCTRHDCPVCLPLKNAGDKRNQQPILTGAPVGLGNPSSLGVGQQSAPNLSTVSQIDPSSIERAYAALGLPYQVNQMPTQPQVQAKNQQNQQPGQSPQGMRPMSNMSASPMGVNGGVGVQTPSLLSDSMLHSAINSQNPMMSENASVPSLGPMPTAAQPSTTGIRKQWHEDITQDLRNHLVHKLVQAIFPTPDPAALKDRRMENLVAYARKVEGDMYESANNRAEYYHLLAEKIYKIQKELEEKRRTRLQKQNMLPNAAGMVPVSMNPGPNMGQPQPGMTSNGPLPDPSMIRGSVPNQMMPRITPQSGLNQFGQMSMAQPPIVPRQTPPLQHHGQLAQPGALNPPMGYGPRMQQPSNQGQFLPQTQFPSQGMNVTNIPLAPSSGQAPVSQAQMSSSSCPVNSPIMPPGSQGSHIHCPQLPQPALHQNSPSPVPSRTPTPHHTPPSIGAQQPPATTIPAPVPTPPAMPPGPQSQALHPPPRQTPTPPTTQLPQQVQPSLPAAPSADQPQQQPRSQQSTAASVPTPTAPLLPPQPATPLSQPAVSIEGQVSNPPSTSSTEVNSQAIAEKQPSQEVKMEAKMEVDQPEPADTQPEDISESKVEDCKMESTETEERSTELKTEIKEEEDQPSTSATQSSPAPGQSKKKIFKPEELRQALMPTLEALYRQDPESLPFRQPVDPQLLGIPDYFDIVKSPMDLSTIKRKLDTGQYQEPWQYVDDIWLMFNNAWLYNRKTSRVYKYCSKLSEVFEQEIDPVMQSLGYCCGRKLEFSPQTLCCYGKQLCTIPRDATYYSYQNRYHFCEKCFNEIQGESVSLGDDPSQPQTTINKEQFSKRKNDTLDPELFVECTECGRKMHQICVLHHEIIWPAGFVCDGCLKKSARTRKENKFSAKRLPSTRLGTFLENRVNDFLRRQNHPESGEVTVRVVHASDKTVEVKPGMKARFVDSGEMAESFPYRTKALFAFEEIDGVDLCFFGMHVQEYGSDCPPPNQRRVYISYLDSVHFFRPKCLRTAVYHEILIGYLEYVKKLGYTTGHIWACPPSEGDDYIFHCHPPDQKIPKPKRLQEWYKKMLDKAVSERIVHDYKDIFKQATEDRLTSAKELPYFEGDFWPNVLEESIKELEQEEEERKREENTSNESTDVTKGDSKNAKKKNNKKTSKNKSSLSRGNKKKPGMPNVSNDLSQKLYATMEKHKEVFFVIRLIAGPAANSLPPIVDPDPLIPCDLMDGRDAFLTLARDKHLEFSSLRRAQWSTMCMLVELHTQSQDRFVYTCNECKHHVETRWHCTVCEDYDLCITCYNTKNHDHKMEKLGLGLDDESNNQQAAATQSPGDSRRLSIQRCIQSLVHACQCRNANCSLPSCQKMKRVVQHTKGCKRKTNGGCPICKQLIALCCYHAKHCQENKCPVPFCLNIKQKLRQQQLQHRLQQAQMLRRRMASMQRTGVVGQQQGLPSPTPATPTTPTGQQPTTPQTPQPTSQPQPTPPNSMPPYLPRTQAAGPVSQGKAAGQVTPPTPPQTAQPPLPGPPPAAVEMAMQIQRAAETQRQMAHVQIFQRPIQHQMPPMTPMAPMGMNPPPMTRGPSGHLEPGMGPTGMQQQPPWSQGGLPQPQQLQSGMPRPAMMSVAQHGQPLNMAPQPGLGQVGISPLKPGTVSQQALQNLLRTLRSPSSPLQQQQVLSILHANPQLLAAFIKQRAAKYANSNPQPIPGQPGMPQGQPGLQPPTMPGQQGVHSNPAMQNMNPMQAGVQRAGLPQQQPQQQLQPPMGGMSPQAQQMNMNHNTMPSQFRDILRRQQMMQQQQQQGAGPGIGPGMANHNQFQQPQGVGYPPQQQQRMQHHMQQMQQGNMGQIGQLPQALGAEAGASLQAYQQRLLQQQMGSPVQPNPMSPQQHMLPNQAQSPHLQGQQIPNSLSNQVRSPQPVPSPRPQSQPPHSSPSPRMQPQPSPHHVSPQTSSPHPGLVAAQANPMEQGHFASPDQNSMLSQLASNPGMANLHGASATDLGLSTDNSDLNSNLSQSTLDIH

B1: progesterone receptor isoform A (PR-A), full-length, Strep II-tagged (receptor)
chain: MSRSGCKVGDSSGTAAAHKVLPRGLSPARQLLLPASESPHWSGAPVKPSPQAAAVEVEEEDGSESEESAGPLLKGKPRALGGAAAGGGAAAVPPGAAAGGVALVPKEDSRFSAPRVALVEQDAPMAPGRSPLATTVMDFIHVPILPLNHALLAARTRQLLEDESYDGGAGAASAFAPPRSSPCASSTPVAVGDFPDCAYPPDAEPKDDAYPLYSDFQPPALKIKEEEEGAEASARSPRSYLVAGANPAAFPDFPLGPPPPLPPRATPSRPGEAAVTAAPASASVSSASSSGSTLECILYKAEGAPPQQGPFAPPPCKAPGASGCLLPRDGLPSTSASAAAAGAAPALYPALGLNGLPQLGYQAAVLKEGLPQVYPPYLNYLRPDSEASQSPQYSFESLPQKICLICGDEASGCHYGVLTCGSCKVFFKRAMEGQHNYLCAGRNDCIVDKIRRKNCPACRLRKCCQAGMVLGGRKFKKFNKVRVVRALDAVALPQPVGVPNESQALSQRFTFSPGQDIQLIPPLINLLMSIEPDVIYAGHDNTKPDTSSSLLTSLNQLGERQLLSVVKWSKSLPGFRNLHIDDQITLIQYSWMSLMVFGLGWRSYKHVSGQMLYFAPDLILNEQRMKESSFYSLCLTMWQIPQEFVKLQVSQEEFLCMKVLLLLNTIPLEGLRSQTQFEEMRSSYIRELIKAIGLRQKGVVSSSQRFYQLTKLLDNLHDLVKQLHLYCLNTFIQSRALSVEFPEMMSEVIAAQLPKILAGMVKPLLFHKK
modifications: phosphorylated on multiple serine residues (sites not given)
Turning to B1, the binding result in data set [1] is “binds”.

B2: progesterone receptor isoform B (PR-B), full-length, Strep II-tagged (receptor)
chain: MTELKAKGPRAPHVAGGPPSPEVGSPLLCRPAAGPFPGSQTSDTLPEVSAIPISLDGLLFPRPCQGQDPSDEKTQDQQSLSDVEGAYSRAEATRGAGGSSSSPPEKDSGLLDSVLDTLLAPSGPGQSQPSPPACEVTSSWCLFGPELPEDPPAAPATQRVLSPLMSRSGCKVGDSSGTAAAHKVLPRGLSPARQLLLPASESPHWSGAPVKPSPQAAAVEVEEEDGSESEESAGPLLKGKPRALGGAAAGGGAAAVPPGAAAGGVALVPKEDSRFSAPRVALVEQDAPMAPGRSPLATTVMDFIHVPILPLNHALLAARTRQLLEDESYDGGAGAASAFAPPRSSPCASSTPVAVGDFPDCAYPPDAEPKDDAYPLYSDFQPPALKIKEEEEGAEASARSPRSYLVAGANPAAFPDFPLGPPPPLPPRATPSRPGEAAVTAAPASASVSSASSSGSTLECILYKAEGAPPQQGPFAPPPCKAPGASGCLLPRDGLPSTSASAAAAGAAPALYPALGLNGLPQLGYQAAVLKEGLPQVYPPYLNYLRPDSEASQSPQYSFESLPQKICLICGDEASGCHYGVLTCGSCKVFFKRAMEGQHNYLCAGRNDCIVDKIRRKNCPACRLRKCCQAGMVLGGRKFKKFNKVRVVRALDAVALPQPVGVPNESQALSQRFTFSPGQDIQLIPPLINLLMSIEPDVIYAGHDNTKPDTSSSLLTSLNQLGERQLLSVVKWSKSLPGFRNLHIDDQITLIQYSWMSLMVFGLGWRSYKHVSGQMLYFAPDLILNEQRMKESSFYSLCLTMWQIPQEFVKLQVSQEEFLCMKVLLLLNTIPLEGLRSQTQFEEMRSSYIRELIKAIGLRQKGVVSSSQRFYQLTKLLDNLHDLVKQLHLYCLNTFIQSRALSVEFPEMMSEVIAAQLPKILAGMVKPLLFHKK
modifications: phosphorylated on multiple serine residues (sites not given)
For orientation: stoichiometry N means the number of molecules, sites or subunits per partner or assembly. Take B2: the “stoichiometry N” value in the data set “SEC-MALS” stood at 2. Further, the binding result in data set [1] is recorded as “binds”.

The record behind these values is article PMC12069617 (Nature Communications, 2024).
